For data set [1], the target named is GapR (full length, Caulobacter crescentus) (Caulobacter crescentus). The data set can be described thus: crystal structure; GapR or GapRΔ1-11 crystallised with 19-bp dsDNA (DNA not seen in the maps), sitting drop, room temperature, ammonium sulfate and PEG 3350; tetramer formed by crystallographic symmetry.
Data set [2] shares this target. The data set can be described thus: SEC; 6.25 μM protein (calculated as tetramer); GapR without and with 20 μM 19 bp DNA on Superdex 200 Increase 10 300 GL; GapR and GapR6KtoE on HiLoad 16/600 Superdex 200 pg against protein standards.
Data set [3] shares this target. Nature of the data set: SEC-MALS; 50 μl of GapR at 0.5 mM (calculated as tetramer), no DNA, Superdex-200 Increase 10 300 GL, SEC buffer (20 mM HEPES pH 7.4, 200 mM NaCl, 0.2 mM TCEP).
Data set [4] concerns the target GapRΔ1-11 (Caulobacter crescentus). Nature of the data set: crystal structure; GapR or GapRΔ1-11 crystallised with 19-bp dsDNA (DNA not seen in the maps), sitting drop, room temperature, ammonium sulfate and PEG 3350; tetramer formed by crystallographic symmetry.
Data set [5] addresses T1, GapR (Caulobacter crescentus, UniProt Q9A385 1-89).
T1 sequence: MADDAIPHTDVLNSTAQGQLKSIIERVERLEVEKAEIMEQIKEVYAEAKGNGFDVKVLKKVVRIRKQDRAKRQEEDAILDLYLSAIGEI
Nature of the data set: EMSA; 0.425 uM tetramer, 1.7 uM DNA; EMSA: 10 mM Tris pH 7.5, 50 mM NaCl, 1 mM EDTA; 8% gel in 0.5x TBE pH 8.3 at 4 C. Particulars: protein: recombinant; tags: N-terminal His8 cleaved by TEV (vector residues may remain); chain copies: 4; blunt.

As for “GapR (full length, Caulobacter crescentus) (natural protein)”, the stoichiometry N in data set [1], in data set [2] and in data set [3] was 4 throughout.
GapRΔ1-11 (domain or fragment): in data set [4], the stoichiometry N amounted to 4.

B1: 19 bp oligonucleotide (19mer) (dsDNA)
DNA 1: GTTAAGCAACCGTTAACGG
DNA 2: CCGTTAACGGTTGCTTAAC
On to B1, for which the binding result in data set [5] was “binds”.

Source of the values: PMC6853979, “Structures of GapR reveal a central channel which could accommodate B-DNA”.
